# Source: patent US11597752B2, “Peptides and combination of peptides and scaffolds thereof for use in immunotherapy against colorectal carcinoma (CRC) and other cancers” (priority 2015, dated 2023)
# Target: HLA-A*02:01 (Homo sapiens, UniProt P04439, D140Y/D185E/D98H/E176V/E277Q/G131W/G231S/I119V/I121R/I166T/I218V/L300P/L318F/N151K/N90K/P208A/P217A/Q86G/Q94H/R138H/R169H/T345S)
# Experiment: MHC binding assay (UV-ligand exchange, beta2m ELISA, peptide exchange yield)
# Details: binding to HLA-A*02:01, β2m ELISA
# Excerpt: Candidate peptides for T cell based therapies according to the present invention were further tested for their MHC binding capacity (affinity). The individual peptide-MHC complexes were produced by UV-ligand exchange, where a UV-sensitive peptide is cleaved upon UV-irradiation, and exchanged with the peptide of interest as analyzed. Only peptide candidates that can effectively bind and stabilize the peptide-receptive MHC molecules prevent dissociation of the MHC complexes. To determine the yield of the exchange reaction, an ELISA was performed based on the detection of the light chain (β2m) of stabilized MHC complexes. The assay was performed as generally described in Rodenko et al. (Rodenko et al., 2006).
# 96 well MAXISorp plates (NUNC) were coated over night with 2 ug/ml streptavidin in PBS at room temperature, washed 4× and blocked for 1 h at 37° C. in 2% BSA containing blocking buffer. Refolded HLA-A*02:01/MLA-001 monomers served as standards, covering the range of 15-500 ng/ml. Peptide-MHC monomers of the UV-exchange reaction were diluted 100 fold in blocking buffer. Samples were incubated for 1 h at 37° C., washed four times, incubated with 2 ug/ml HRP conjugated anti-β2m for 1 h at 37° C., washed again and detected with TMB solution that is stopped with […]. Absorption was measured at 450 nm. Candidate peptides that show a high exchange yield (preferably higher than 50%, most preferred higher than 75%) are generally preferred for a generation and production of antibodies or fragments thereof, and/or T cell receptors or fragments thereof, as they show sufficient avidity to the MHC molecules and prevent dissociation of the MHC complexes.
row,Substance,"Peptide exchange (MHC class I binding score, peptide exchange yield)"
1,103 (FLFGYPKRL; listed as Homo sapiens) [compound 103],“++” (≥20% = ++)
2,104 (ILLTIKDDTIYL; listed as Homo sapiens) [compound 104],“+++” (≥50 = +++)
3,105 (YALDLSTFL; listed as Homo sapiens) [compound 105],“+++” (≥50 = +++)
4,106 (SLISEKILL; listed as Homo sapiens) [compound 106],“+++” (≥50 = +++)
5,107 (ALLGGGPYML; listed as Homo sapiens) [compound 107],“+++” (≥50 = +++)
6,108 (SLAELVPGVGGI; listed as Homo sapiens) [compound 108],“+++” (≥50 = +++)
7,109 (ALDGDQMEL; listed as Homo sapiens) [compound 109],“++” (≥20% = ++)
8,110 (LLGELPRLLLL; listed as Homo sapiens) [compound 110],“+++” (≥50 = +++)
9,112 (KLGQVLIYL; listed as Homo sapiens) [compound 112],“++” (≥20% = ++)
10,113 (ILYDLQQNL; listed as Homo sapiens) [compound 113],“++” (≥20% = ++)
11,114 (TAVGHALVL; listed as Homo sapiens) [compound 114],“+” (≥10% = +)
12,115 (SLFDVSHML; listed as Homo sapiens) [compound 115],“+++” (≥50 = +++)
13,116 (LVYQFVHPI; listed as Homo sapiens) [compound 116],“++” (≥20% = ++)
14,117 (TLQPVDNSTISL; listed as Homo sapiens) [compound 117],“++” (≥20% = ++)
15,118 (LLADLKTMV; listed as Homo sapiens) [compound 118],“+++” (≥50 = +++)
16,119 (ILYQTVTGL; listed as Homo sapiens) [compound 119],“++” (≥20% = ++)
17,120 (VLYEGVDEV; listed as Homo sapiens) [compound 120],“++” (≥20% = ++)
18,121 (SLAPNIISQL; listed as Homo sapiens) [compound 121],“+++” (≥50 = +++)
19,122 (SLMGMVLKL; listed as Homo sapiens) [compound 122],“+++” (≥50 = +++)

row,Substance,"Peptide exchange (MHC class I binding score, peptide exchange yield)"
1,125 (KLGDFGLLVEL; listed as Homo sapiens) [compound 125],“++++” (≥75% = ++++)
2,126 (TLAKYLMEL; listed as Homo sapiens) [compound 126],“+++” (≥50 = +++)
3,128 (MLDDRAYLV; listed as Homo sapiens) [compound 128],“++” (≥20% = ++)
4,129 (VLIDVLKEL; listed as Homo sapiens) [compound 129],“+++” (≥50 = +++)
5,130 (GLGGSQLIDTHL; listed as Homo sapiens) [compound 130],“++” (≥20% = ++)
6,131 (KLLDVVHPA; listed as Homo sapiens) [compound 131],“++” (≥20% = ++)
7,134 (GVAGGSILKGV; listed as Homo sapiens) [compound 134],“++++” (≥75% = ++++)
8,135 (KLQEEIPVL; listed as Homo sapiens) [compound 135],“++” (≥20% = ++)
9,136 (KLFDIFSQQV; listed as Homo sapiens) [compound 136],“+++” (≥50 = +++)
10,137 (QLTEIKPLL; listed as Homo sapiens) [compound 137],“+++” (≥50 = +++)
11,138 (KQFEGTVEI; listed as Homo sapiens) [compound 138],“+++” (≥50 = +++)
12,139 (VLLNEILEQV; listed as Homo sapiens) [compound 139],“+++” (≥50 = +++)
13,140 (LLNEILEQV; listed as Homo sapiens) [compound 140],“+++” (≥50 = +++)
14,143 (KLSDVWKEL; listed as Homo sapiens) [compound 143],“+++” (≥50 = +++)
15,144 (LLNDRIWLA; listed as Homo sapiens) [compound 144],“+++” (≥50 = +++)
16,145 (LLLEVVKQV; listed as Homo sapiens) [compound 145],“+++” (≥50 = +++)
17,146 (ALSDETWGL; listed as Homo sapiens) [compound 146],“++” (≥20% = ++)
18,147 (TLTELRAFL; listed as Homo sapiens) [compound 147],“++++” (≥75% = ++++)
19,148 (RLLENMTEVV; listed as Homo sapiens) [compound 148],“+++” (≥50 = +++)

row,Substance,"Peptide exchange (MHC class I binding score, peptide exchange yield)"
1,149 (YQFDKVGILTL; listed as Homo sapiens) [compound 149],“+++” (≥50 = +++)
2,151 (SAQGSDVSLTACKV; listed as Homo sapiens) [compound 151],“+++” (≥50 = +++)
3,152 (KLLAVIHEL; listed as Homo sapiens) [compound 152],“++” (≥20% = ++)
4,153 (ILFSEDSTKLFV; listed as Homo sapiens) [compound 153],“+++” (≥50 = +++)
5,154 (KLPSETIFVGC; listed as Homo sapiens) [compound 154],“+++” (≥50 = +++)
6,155 (RLLGEEVVRV; listed as Homo sapiens) [compound 155],“+++” (≥50 = +++)
7,156 (SLMMTIINL; listed as Homo sapiens) [compound 156],“++++” (≥75% = ++++)
8,157 (SLIERDLKL; listed as Homo sapiens) [compound 157],“+++” (≥50 = +++)
9,158 (GLLDPSVFHV; listed as Homo sapiens) [compound 158],“+++” (≥50 = +++)
10,159 (VLVDDDGIKVV; listed as Homo sapiens) [compound 159],“++” (≥20% = ++)
11,160 (KLLEFDQLQL; listed as Homo sapiens) [compound 160],“+++” (≥50 = +++)
12,161 (FLKNELDNV; listed as Homo sapiens) [compound 161],“+++” (≥50 = +++)
13,162 (KLMDYIDEL; listed as Homo sapiens) [compound 162],“+++” (≥50 = +++)
14,163 (RLLHEVQEL; listed as Homo sapiens) [compound 163],“+++” (≥50 = +++)
15,164 (KMLDEILLQL; listed as Homo sapiens) [compound 164],“++++” (≥75% = ++++)
16,165 (RLLDFPEAMVL; listed as Homo sapiens) [compound 165],“++++” (≥75% = ++++)
17,166 (GLLEARGILGL; listed as Homo sapiens) [compound 166],“+++” (≥50 = +++)
18,167 (SVIDHIHLISV; listed as Homo sapiens) [compound 167],“+++” (≥50 = +++)
